From US20090306338A1 (TRUSTEES OF TUFTS COLLEGE, published 2009)
Square brackets hold non-standard residues; d marks the D form. Ends that are not written are not given here. Asp(3,3-Me2) = CC(C)(C(=O)O)[C@H](N)C(=O)O

Key:
[1] = target: human GLP-1 receptor (human) (UniProt P43220); experiment: cell-based or functional assay
[2] = target: human GLP-1 receptor (human) (UniProt P43220)
human GLP-1 receptor [3] = target: T1, human GLP-1 receptor (human, UniProt P43220 24-463); experiment: cell-based or functional assay
human GLP-1 receptor [4] = target: T1, human GLP-1 receptor; experiment: cell-based or functional assay; remark: listed apart in the source
human GLP-1 receptor [5] = target: T1, human GLP-1 receptor

Chain of human GLP-1 receptor (human) (P43220 24-463): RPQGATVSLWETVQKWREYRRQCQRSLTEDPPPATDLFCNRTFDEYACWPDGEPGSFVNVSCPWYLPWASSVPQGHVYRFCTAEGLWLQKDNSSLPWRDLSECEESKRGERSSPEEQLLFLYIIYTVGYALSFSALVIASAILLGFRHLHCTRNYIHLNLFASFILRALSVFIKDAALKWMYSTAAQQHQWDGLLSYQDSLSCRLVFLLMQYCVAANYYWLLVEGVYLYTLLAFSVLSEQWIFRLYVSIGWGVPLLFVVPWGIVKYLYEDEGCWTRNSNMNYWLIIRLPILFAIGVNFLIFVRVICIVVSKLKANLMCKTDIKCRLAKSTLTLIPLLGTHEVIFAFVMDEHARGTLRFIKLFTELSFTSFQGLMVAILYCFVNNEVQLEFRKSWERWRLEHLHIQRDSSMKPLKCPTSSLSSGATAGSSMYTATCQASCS

With Exendin-4 (peptide) the EC50 for receptor activation (cAMP) [1] was 0.1 to 0.5 nM.

Work on “Exendin-4 (peptide; other documents disagree on this pair)” yielded an IC50 [2] of 0.4 nM.

In the case of HA[Asp(3,3-Me2)]GTFTSDVSSYLEGQAAKEFIAWLVKGRPSSGAPPPS (ends and bridges not checked) [P1732], the “EC50 (nM), cAMP production in COS-7 cells expressing the human GLP-1 receptor” value (human GLP-1 receptor [3]) is reported as 0.64 nM, the “EC50 for receptor activation (cAMP)” value (human GLP-1 receptor [4]) is reported as 0.4 to 1.1 nM and the IC50 (human GLP-1 receptor [5]) is reported as 2.5 nM.
